Results reported in patent publication US20090191228.

Assays:
[1] = molecular target: T1, dOVA-1 (ovalbumin misfolded by HCl treatment, 40 min 37 C, neutralized), P01012
T1 chain: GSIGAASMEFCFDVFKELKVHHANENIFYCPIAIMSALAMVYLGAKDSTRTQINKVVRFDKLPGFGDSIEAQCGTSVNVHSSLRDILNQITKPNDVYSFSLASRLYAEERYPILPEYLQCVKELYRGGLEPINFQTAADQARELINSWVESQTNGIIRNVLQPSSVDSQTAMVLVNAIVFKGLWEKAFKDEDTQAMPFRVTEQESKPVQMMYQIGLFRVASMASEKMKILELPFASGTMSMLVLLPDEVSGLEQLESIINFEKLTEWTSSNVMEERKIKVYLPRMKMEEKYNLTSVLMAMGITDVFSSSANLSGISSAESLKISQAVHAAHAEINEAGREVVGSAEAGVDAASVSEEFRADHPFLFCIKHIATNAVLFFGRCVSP

[2] = molecular target: CH5-3 (nH5 of A/VN/1203/04 heat cycled at pH 12)
[3] = molecular target: T2, dOVA-3 (ovalbumin misfolded by about 16 h at 75 C), P01012
T2 chain: T1 chain

[4] = molecular target: CH5-1 (nH5 of A/VN/1203/04 misfolded by three heat cycles 25-85 C)
[5] = molecular target: CH5-2 (nH5 of A/VN/1203/04 heat cycled at pH 2)
[6] = molecular target: CH5-4 (nH5 of A/VN/1203/04 incubated with 100 mM glucose-6-phosphate for 67 h at 80 C)
[7] = molecular target: T3, nOVA (non-treated ovalbumin, 1 mg/ml in PBS), P01012
T3 chain: T1 chain

[8] = molecular target: nH5 (non-treated H5 of H5N1 strain A/Vietnam/1203/04, Protein Sciences, NaCl adjusted to 171 mM)
[9] = molecular target: T4, dOVA-2 (ovalbumin misfolded by five heat cycles 30 to 85 C), P01012
T4 chain: T1 chain

B1: tissue type plasminogen activator (tPA) (protein)
chain: SYQVICRDEKTQMIYQQHQSWLRPVLRSNRVEYCWCNSGRAQCHSVPVKSCSEPRCFNGGTCQQALYFSDFVCQCPEGFAGKCCEIDTRATCYEDQGISYRGTWSTAESGAECTNWNSSALAQKPYSGRRPDAIRLGLGNHNYCRNPDRDSKPWCYVFKAGKYSSEFCSTPACSEGNSDCYFGNGSAYRGTHSLTESGASCLPWNSMILIGKVYTAQNPSAQALGLGKHNYCRNPDGDAKPWCHVLKNRRLTWEYCDVPSCSTCGLRQYSQPQFRIKGGLFADIASHPWQAAIFAKHRRSPGERFLCGGILISSCWILSAAHCFQERFPPHHLTVILGRTYRVVPGEEEQKFEVEKYIVHKEFDDDTYDNDIALLQLKSDSSRCAQESSVVRTVCLPPADLQLPDWTECELSGYGKHEALSPFYSERLKEAHVRLYPSSRCTSQHLLNRTVTDNMLCAGDTRSGGPQANLHDACQGDSGGPLVCLNDGRMTLVGIISWGLGCGQKDVPGVYTKVTNYLDWIRDNMRP
[1]
  tPA activation potency, Activation at 10 ug/mL (% of reference): 97.4
  tPA activation potency, Activation at 25 ug/mL (% of reference): 136
[2]
  tPA mediated plasminogen activation assay: CH5-3 (200% of standard)
[3]
  tPA activation potency, Activation at 10 ug/mL (% of reference): 60.9
  tPA activation potency, Activation at 25 ug/mL (% of reference): 79
[4]
  tPA mediated plasminogen activation assay: CH5-1 (50% of standard)
[5]
  tPA mediated plasminogen activation assay: CH5-2 (150% of standard)
[6]
  tPA mediated plasminogen activation assay: CH5-4 (37% of standard)
[7]
  tPA activation potency, Activation at 10 ug/mL (% of reference): 48.8
  tPA activation potency, Activation at 25 ug/mL (% of reference): 48.1
[8]
  tPA mediated plasminogen activation assay: nH5 (140% of standard)
[9]
  tPA activation potency (tPA-mediated plasminogen activation, chromogenic); reference dOVA-2 at 80 ug/mL, column Activation at 10 ug/mL (% of reference): 100
  tPA activation potency (tPA-mediated plasminogen activation, chromogenic); reference dOVA-2 at 80 ug/mL, column Activation at 25 ug/mL (% of reference): 100
  tPA activation potency, Activation at 10 ug/mL (% of reference): 107
  tPA activation potency, Activation at 25 ug/mL (% of reference): 107
  tPA/Plg activating potential, cross-beta ovalbumin standard at 10 ug/ml: at 10 and 50 ug/ml, tPA/plg activation is 100% and 85%, respectively
  tPA/Plg activating potential, cross-beta ovalbumin standard at 30 ug/ml: The activating potential of cross-beta ovalbumin standard at 30 ug/ml is set to 100%
  tPA/Plg activating potential, cross-beta ovalbumin standard at 50 ug/ml: at 10 and 50 ug/ml, tPA/plg activation is 100% and 85%, respectively
